# Measurements taken from the DeepSol protein solubility set.
# Assay: soluble on expression in E. coli; label from the status in PepcDB or PDB records
row,Sequence,soluble on expression in E. coli
1,MDRIRNDGVFYEIAYAESLMPATRKNTLFNGRVLIRSLKSKNIIFSSGAETMLDLRSPVDVMNMSLLWGVANNEARKMISGFPKNLLLQAECRGTGNGDVCSMKLSDAEKLAGNGEEEEQDGASEEKVVVGKEEEAEKVKAPPIEVRMNHSQYQALLQATKNANDMMKKIKASKAASSS,not soluble
2,MGSDKIHHHHHHENLYFQGMFRPQDDFTYLMPVHFGGGKFDPETLVTQKATALSLSFETERDLLENYIPEGFELLAPEVQVAFNKFTEINWLHGGQYNLINVAAPVRFHGKKDELDGAYTLVVWENKTAPILGGREQTGIPKIYADIEDLHIVRPHFATTVSYEGNTFLNMDFEATGSITGRDLDALKSQFLTMNTLGWRYIPKVGAPGAELSQFVLYPQGMEVETAEVGKGSLKWTELTPMQSPAQYYIVNSLASLPIKRVTQAVLVEGRAILRAMGARVIE,soluble
3,MYKRAEYHVITDRLKDRRRFIQVVMGARQIGKSTVVKQVLKDLDAPYQFFSADNVPTVNGAWISDCWAAVRSLKEAKEWESIILVIDEIQKIANWSEVVKKEWDDDTFHDRNIKVLLLGSSRVLLEKGLSESLAGRFEEIRMSHWSYQEMKDCFGFSLNQYLFYGGYPGAASLTDDDDRFSQYIQAAIIEATINKDILMGTPIGKPALLRRTFELGAAYSGELLSLNKMLGSLQDAGNTVTLAGYINLLDESGLLCGLQKFGYDMARRKASIPKLQVYNNALKMVYSPFTFEQAMLDRKSWGRIFESGIGAYLVSQAFVHRFEVFYWRERDDEVDFVLRKKGSVVAIEVKSNAEKRTDGLDKFSHSFKPQSAFILGDGGVRAEDFLSMDIRKLF,not soluble
4,MSEDGGVTTDERACAAPLQLSNTFPRVSRHAVQTGLSPHPRVRNVIAVGSGKGGVGKSTIAVNLAVALQRTGVRVGLLDADIYGPSVPAMLGLSGRPESPDNKLIEPLRAFGIEAMSIGLLIDVDTPMIWRGPMATSALTQLFNDTLWGDLDYLLIDLPPGTGDIQLTLSQKIPVAGAVIVTTPQDIATLDARKALKMFEKVNVPVLGIVENMAMHCCRQCGHVEHLFGEGGAQRMAEHYHVPLLGSLPLDIVIREHGDLGQPITVAAPKGSVGQAYAAVAACLAAELAKRPRAAIPMTTTLGLEHHHHHH,not soluble
5,MKILVFGGTRFFGKKLVERLVSEGHDVTIGTRGKTEDNFGDTVKRVVLNRESRDALFQLAKEDWDVIYDNICFSPKEALYAVDAFKGKVKRYIYTSSLSVYSQKGRALVEADFNPEHYEIVIGDKEDFDYGEGKRLAEAVFFQKASFPVVAVRFPIVLGLDDYTKRLHFHINHIKNHQEIGISNGQAEIGFITSDEAAHFLEWVGVESDLTGPVNATSNGTYALNGFIKMLEEKIGELALVEEVTDDVDDSPFGIEKTYYLDNAKATEAGFVFNDLKVWLPALVTDILKENLEHHHHHH,not soluble
6,MAHHHHHHMEKQCPVCYFNLPDPESAIAPYDTELNYFMWGPGFEWQPEPEVKNILVEEENFEESEQSEESVAGLEELDEKVDRSEAKTMFNEKSSNGKVSVEDASQNARKLGLAPSSLDEKKVRDLYGDSLTYEQYLEYLAMCVHDRDNMEELIKMFSHFDNNASGFLTKNQMRNILTTWGDALTEQEANDALNAFSSEDRIDYKLFCEDILQ,not soluble
7,MTVLQLPNIPRITLLGTTALLFEAPGELDLAPQQRIWALADLSKNWPQVREAVPGMNNLMLTFETPPRDLSGLKTRLMEAWEHCQPLPLQGRIIELPVVYGGDGGPHMADVIAHTGLDIETIANLHCEPLYPVYALGSHPGYCYLGGMDLRLATPRRKVPVLDIGAGSVSIGGVQTGISASAGPSGWNTIGRTEMVFFDADQHPPALLQPGDQLRLRIERIIRLEHHHHHH,not soluble
8,GAMGSSLDNPTPFPNLGPSENPLKRLLVPGEEWEFEVTAFYRGRQVFQQTISCPEGLRLVGSEVGDRTLPGWPVTLPDPGMSLTDRGVMSYVRHVLSCLGGGLALWRAGQWLWAQRLGHCHTYWAVSEELLPNSGHGPDGEVPKDKEGGVFDLGPFIVDLITFTEGSGRSPRYALWFCVGESWPQDQPWTKRLVMVKVVPTCLRALVEMARVGGASSLENTVDLHISNSHPLSLTSDQYKAYLQDLVEGMDFQGPGES,soluble
9,MKKKPLTPEQLDDAKRLKELFNAKKKALGISQESVAHELGVGQSAVNQFLNGVNPLNITNAAAFAKVLNEPISSFSPSLAKELAKMAESLSITTRSGAKDKPAVSVANSYPLISWISAGNWYEAIEPYTLRDIEIWPESTKHAHESAFWLSVKGDSMTSPSGISFPEGMIILVDPEKEPMPGNFVIAKLTDDNEATFKKLVVDAGIKYLKPLNPAYRLIELNGNCKILGVVVDARWLQID,not soluble
10,RESITDSRMAYRTISPFLTDLPQEEMWVLLLNQSGKIISMENLSRGGVSETSADVRLIMHKAVSHLASAIILAHNHPSGTVRPSEQDIQLTQRVQKAATLLGFRLNDHLIIGDDGAYFSFADEGLL,not soluble
11,MAHHHHHHMDLFSIASNLQQIAIGGVNFVNSKLRKKSATAECNYITYIVIGENEKQPYDTNIFFLPFKICGKIKLEEFKEFFPFKDNVIFRFKIPVSDLIDVINEGIVNHAPLMREDSNERNQVKHIISDENEIKNILRQDQFSHLWVDITSEEAYIPFYNGNIVVKVLFI,not soluble
12,MQSLDPLFARLSRSKFRSRFRLGMKERQYCLEKGAPVIEQHAADFVAKRLAPALPANDGKQTPMRGHPVFIAQHATATCCRGCLAKWHNIPQGVSLSEEQQRYIVAVIYHWLVVQMNQP,soluble
13,MGSDKIHHHHHHMTLSKERKLHIPFERDGDLMDIGSYPHWLQDVVGTVRAARDRVRFHEVFSLMRDGRLAPRQLAAFFVNGWPVVEQFPKYMSMNLLKANGTNSSGEEKARRYLIRNIRVELNHVEHWVNWAEASGVPRRQLTDGDSPPAALALSHWCWKSSSADTLAASIAATNYAIEGVTGEWSADLCRSDVYEMGFPEAVRGRAMRWLRLHSSYDDKHPWEALDIVATILGQSPSTEQVRDVAAGIERSFRYFEMSLSCCLDA,not soluble
14,MSLSSWVSESSTETDKYGKSSEGKLYGKSRLSAHPGGIFEPVPYMTSAISLFEYIRERFGYGIEILHDVHERISPIQGVWFAKQVEKYRLFFLEDLFSPEDQHYFEMVRQQCATPIAMGELYVSPNDVIPMMKNKLIDFIRIHISDIGGITPARKIATFGELMGIKTAWHGPGDTSPVGHAANLALNLNSQNFGIQEAAIFGENSKEVFPGCPELRDGMMWSNGKPGLGIDINEELAKKFPFKERVWGGAWEGHHHHHH,not soluble
15,MSLKKLRIGVVGLGGIAQKAWLPVLAAASDWTLQGAWSPTRAKALPICESWRIPYADSLSSLAASCDAVFVHSSTASHFDVVSTLLNAGVHVCVDKPLAENLRDAERLVELAARKKLTLMVGFNRRFAPLYGELKTQLATAASLRMDKHRSNSVGPHDLYFTLLDDYLHVVDTALWLSGGKASLDGGTLLTNDAGEMLFAEHHFSAGPLQITTCMHRRAGSQRETVQAVTDGALIDITDMREWREERGQGVVHKPIPGWQSTLEQRGFVGCARHFIECVQNQTVPQTAGEQAVLAQRIVDKIWRDAMSEEGGSHHHHHH,soluble
16,GSNRAIRTEKIICRDVARGYENVPIPCVNGVDGEPCPEDYKYISENCETSTMNIDRNITHLQHCTCVDDCSSSNCLCGQLSIRCWYDKDGRLLQEFNKIEPPLIFECNQACSCWRNCKNRVVQSGIKVRLQLYRTAKMGWGVRALQTIPQGTFICEYVGELISDAEADVREDDSYLFDLDNKDGEVYCIDARYYGNISRFINHLCDPNIIPVRVFMLHQDLRFPRIAFFSSRDIRTGEELGFDYGDRFWDIKSKYFTCQCGSEKCKHSAEAIALEQSRLARLD,soluble
17,MNPKSSLADGAHIGNYQIVKTLGEGSFGKVKLAYHTTTGQKVALKIINKKVLAKSDMQGRIEREISYLRLLRHPHIIKLYDVIKSKDEIIMVIEYAGNELFDYIVQRDKMSEQEARRFFQQIISAVEYCHRHKIVHRDLKPENLLLDEHLNVKIADFGLSNIMTDGNFLKTSCGSPNYAAPEVISGKLYAGPEVDVWSCGVILYVMLCRRLPFDDESIPVLFKNISNGVYTLPKFLSPGAAGLIKRMLIVNPLNRISIHEIMQDDWFKVDLPEYLLEHHHHHH,soluble
